# Data from patent publication US20250340857A1 (SEISMIC THERAPEUTIC, published 2025).
# Changes are numbered by the printed parent chain.
# B1: FP16 (Fc fusion)
# chain: DKTHTCPPCPAPEAAGAPSVFLFPPKPKDTLMISRTPEVTCVVVDVSHEDPEVKFNWYVDGVEVHNAKTKPREEQQNSTYRVVSVLTVLHQDWLNGKEYKCKVSNKALKAPIEKTISKAKGQPREPQVYTLPPSRDELTKNQVSLTCLVKGFYPSDIAVEWESNGQPENNYKTTPPVLDSDGSFFLYSKLTVDKSRWQQGNVFSCSVMHEALHNHYTQKSLSLSPGGGGSGGGGSGGGGSTALGRRKAEDRIKETLWADGVKIDEKDFEHIKSSHEDYFAVEYGKGSGYYDVNKKMDSEDTALCVGAVVTNMFHWWVDQNRENIEKFKKQDPENNGVMKFNGVKEATVDELNHFYKEYQSNKYADQSRFFDLIKKHFGNKALNPEELFELYFNGFYYGSSHRYIEDNKPAQNNLFSKVLENNKLLNPERSYGIDGFSNNVINALKSHKVLGLVHTTPLRYRHIISMWGADIDQDGKVKAIYVTDSDDREITFNDNSKRRIGMIRYDVLVDDNGNIRFTGKGATHKEEGAIYAGLYSLSRGDEVWEDYFKKYPEVQENL
# B2: FP13 (Fc fusion)
# chain: DKTHTCPPCPAPEAAGAPSVFLFPPKPKDTLMISRTPEVTCVVVDVSHEDPEVKFNWYVDGVEVHNAKTKPREEQQNSTYRVVSVLTVLHQDWLNGKEYKCKVSNKALKAPIEKTISKAKGQPREPQVYTLPPSRDELTKNQVSLTCLVKGFYPSDIAVEWESNGQPENNYKTTPPVLDSDGSFFLYSKLTVDKSRWQQGNVFSCSVMHEALHNHYTQKSLSLSPGGGGSGGGGSGGGGSTALGRRKAEDRIKETLWADGVKIDEKDFEHIKSSHEDYFAVEYGKGSGYYDVNKKMDSEDSALCVGAVVTNMFHWWVDQNRENIEKFKKQDPENNGVMKFEGVKEATVDELNHFYRDNRDNYADQSRFFDLIKKHFGNKALNPEELFELYFNGFYYGSSHRYIEDNEPAQNNLFSKVLENNKLLNPERSYGIDGFSNNVINALKSHKVLGLVHTTPLRYRHIISMWGADIDQDGKVKAIYVTDSDDREITFNDNSKRRIGMIRYDVLVDDNGNIRFTGKGATHKEEGAIYAGLYSLSRGDEVWEDYFKKYPEVQENL
# B3: FP19 (Fc fusion)
# chain: B2 chain with H453Y
# B4: FP184 (Fc fusion)
# chain 1: DKTHTCPPCPAPEAAGAPSVFLFPPKPKDTLMISRTPEVTCVVVDVSHEDPEVKFNWYVDGVEVHNAKTKPREEQQNSTYRVVSVLTVLHQDWLNGKEYKCKVSNKALKAPIEKTISKAKGQPREPQVYTLPPSRDELTKNQVSLWCLVKGFYPSDIAVEWESNGQPENNYKTTPPVLDSDGSFFLYSKLTVDKSRWQQGNVFSCSVMHEALHNHYTQKSLSLSPGEAAAKEAAAKEAAAKTALGRRKAEDRIKETLWADGVKIDEKDFEHIKSSHEDYFAVEYGKGSGYYDVNKKMDSEDSALCVGAVVTNMFHWWVDQNRENIEKFKKQDPENNGVMKFEGVKEATVDELNEFYRDNRDNYADQSRFFDLIKKHFGNKALNPEELFELYFNGFYYGSSHRYIEDNEPAQNNLFSKVLENNKLLNPERSYGIDGFSNNVINALKSHKVLGLVYTTPLRYRHIISMWGADIDQDGKVKAIYVTDSDDREITFNDNSKRRIGMIRYDVLVDDNGNIRFTGKGATHKEEGAIYAGLYSLSRGDEVWEDYFKKYPEVQENL
# chain 2: DKTHTCPPCPAPEAAGAPSVFLFPPKPKDTLMISRTPEVTCVVVDVSHEDPEVKFNWYVDGVEVHNAKTKPREEQQNSTYRVVSVLTVLHQDWLNGKEYKCKVSNKALKAPIEKTISKAKGQPREPQVYTLPPSRDELTKNQVSLSCAVKGFYPSDIAVEWESNGQPENNYKTTPPVLDSDGSFFLVSKLTVDKSRWQQGNVFSCSVMHEALHNHYTQKSLSLSPG
# B5: FP191 (Fc fusion)
# chain 1: DKTHTCPPCPAPEAAGAPSVFLFPPKPKDTLMISRTPEVTCVVVDVSHEDPEVKFNWYVDGVEVHNAKTKPREEQQNSTYRVVSVLTVLHQDWLNGKEYKCKVSNKALKAPIEKTISKAKGQPREPQVYTLPPSRDELTKNQVSLWCLVKGFYPSDIAVEWESNGQPENNYKTTPPVLDSDGSFFLYSKLTVDKSRWQQGNVFSCSVMHEALHNHYTQKSLSLSPGAPAPAPAPAPAPAPTALGRRKAEDRIKETLWADGVKIDEKDFEHIKSSHEDYFAVEYGKGSGYYDVNKKMDSEDSALCVGAVVTNMFHWWVDQNRENIEKFKKQDPENNGVMKFEGVKEATVDELNEFYRDNRDNYADQSRFFDLIKKHFGNKALNPEELFELYFNGFYYGSSHRYIEDNEPAQNNLFSKVLENNKLLNPERSYGIDGFSNNVINALKSHKVLGLVYTTPLRYRHIISMWGADIDQDGKVKAIYVTDSDDREITFNDNSKRRIGMIRYDVLVDDNGNIRFTGKGATHKEEGAIYAGLYSLSRGDEVWEDYFKKYPEVQENL
# chain 2: B4 chain 2
# Biological target: Human IgE antibody (human)
# Assay: cell-based or functional assay
Binder,EC50 CE-SDS IgE [nM],EC50 MSD IgE [nM]
B1,47,–
B2,31.9,–
B3,21.8,1.2
B4,–,0.475
B5,1.51,0.555

# Biological target: IgG1
# Assay: cell-based or functional assay
row,Binder,EC50 CE-SDS IgG1 [nM]
1,B1,8720
2,B2,21300
3,B3,7240
